Values quoted from earlier work, collected in PMC3962080.

Target: human serum albumin (Homo sapiens) (UniProt P02768)

## G148-ABD albumin-binding domain (from UniProt P06654)
  Kd: 5 nM
